# Measurements published in PMC7138024 (Journal of natural products, 2014).
# B1: cystatin (protein)
# chain: SEDRSRLLGAPVPVDENDEGLQRALQFAMAEYNRASNDKYSSRVVRVISAKRQLVSGIKYILQVEIGRTTCPKSSGDLQSCEFHDEPEMAKYTTCTFVVYSIPWLNQIKLLESKCQ
# modifications: two disulfides; Limits are the mature chain
# Molecular target: cruzain (Trypanosoma cruzi, UniProt P25779)
# Type: biochemical
# Conditions: read-out: IC50 (μM) cruzain; triplicate; phosphate buffer pH 6.3, 37 °C
# Sequence of cruzain (P25779 123-467): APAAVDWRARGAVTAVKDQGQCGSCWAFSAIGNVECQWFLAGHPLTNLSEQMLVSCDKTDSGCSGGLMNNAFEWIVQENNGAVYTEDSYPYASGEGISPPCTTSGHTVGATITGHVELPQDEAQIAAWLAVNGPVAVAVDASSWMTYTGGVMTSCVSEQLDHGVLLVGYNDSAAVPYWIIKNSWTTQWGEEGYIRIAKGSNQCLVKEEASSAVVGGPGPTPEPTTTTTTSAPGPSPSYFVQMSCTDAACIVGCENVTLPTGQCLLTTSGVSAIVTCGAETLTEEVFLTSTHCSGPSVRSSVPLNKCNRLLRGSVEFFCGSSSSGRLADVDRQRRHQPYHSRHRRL
molecule,measurement,value
B1,IC50,0.0085 ± 0.025 µM
